Assay results: the supplement of paper PMC10567573

B1: LOC100129726 (parent)
chain: AKAADSPTRNDLESGLGHFSLRVH

Variants of: B1
Experiment: protein stability index of a GFP-peptide fusion (GPS, HEK-293T) (PSI 1-6); higher = more stable
Settings: c terminus: a fixed tail appended
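Note: lentivirally expressed fusions sorted by FACS into six bins by GFP to DsRed ratio, PSI derived from sequencing read proportions per bin multiplied by bin number.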

Variant	protein stability index
VKAADSPTRNDLESGLGHFSLRVH [A1V]	3.39
GKAADSPTRNDLESGLGHFSLRVH [A1G]	3.1
IKAADSPTRNDLESGLGHFSLRVH [A1I]	2.48
WKAADSPTRNDLESGLGHFSLRVH [A1W]	2.33
TKAADSPTRNDLESGLGHFSLRVH [A1T]	3.25
YKAADSPTRNDLESGLGHFSLRVH [A1Y]	3.34
HKAADSPTRNDLESGLGHFSLRVH [A1H]	3.27
AKAADSPTRNDLESGLGHFSLRVR [H24R]	2.79
AKAADSPTRNDLESGLGHFSLRVL [H24L]	2.59
AKAADSPTRNDLESGLGHFSLRVW [H24W]	2.09
AKAADSPTRNDLESGLGHFSLRVY [H24Y]	1.58
AKAADSPTRNDLESGLGHFSLRVG [H24G]	2.64
AKAADSPTRNDLESGLGHFSLRVM [H24M]	2.25
AKAADSPTRNDLESGLGHFSLRVE [H24E]	3.75
AKAADSPTRNDKESGLGHFSLRVH [L12K]	3.92
AKAADSPTRNDTESGLGHFSLRVH [L12T]	2.91
AKAADSPTRNDIESGLGHFSLRVH [L12I]	3
AKAADSPTRNDHESGLGHFSLRVH [L12H]	3.57
AKAADSPTRNDQESGLGHFSLRVH [L12Q]	4.45
AKAADSPTRNDAESGLGHFSLRVH [L12A]	3.47
AKAADSPTRNDCESGLGHFSLRVH [L12C]	2.82
AKAADSPTRNDGESGLGHFSLRVH [L12G]	3.52
AKAADSPTRNDLESKLGHFSLRVH [G15K]	2.93
AKAADSPTRNDLESNLGHFSLRVH [G15N]	2.82

Variant	protein stability index
AKAADSPTRNDLESLLGHFSLRVH [G15L]	2.37
AKAADSPTRNDLESYLGHFSLRVH [G15Y]	2.4
AKAADSPTRNDLESHLGHFSLRVH [G15H]	3.26
AKAADSPTRNDLESDLGHFSLRVH [G15D]	3.51
AKAADSPTRNDLESQLGHFSLRVH [G15Q]	3.81
AKAADLPTRNDLESGLGHFSLRVH [S6L]	2.16
AKAADFPTRNDLESGLGHFSLRVH [S6F]	2.74
AKAADKPTRNDLESGLGHFSLRVH [S6K]	2.98
AKAADTPTRNDLESGLGHFSLRVH [S6T]	3.39
AKAADAPTRNDLESGLGHFSLRVH [S6A]	2.45
AKAADQPTRNDLESGLGHFSLRVH [S6Q]	3.76
AKAADSPTRNDLESGLGHFVLRVH [S20V]	2.21
AKAADSPTRNDLESGLGHFRLRVH [S20R]	2.19
AKAADSPTRNDLESGLGHFNLRVH [S20N]	3.45
AKAADSPTRNDLESGLGHFLLRVH [S20L]	2.09
AKAADSPTRNDLESGLGHFELRVH [S20E]	3.72
AKAADSPTRNDLESGLGHFKLRVH [S20K]	3.4
AKAADSPTRNDLESGLGHFHLRVH [S20H]	3.35
AKAADSPTRNDLESGLGHFCLRVH [S20C]	2.45
AKTADSPTRNDLESGLGHFSLRVH [A3T]	2.58
AKEADSPTRNDLESGLGHFSLRVH [A3E]	3.8
AKMADSPTRNDLESGLGHFSLRVH [A3M]	2.27
AKKADSPTRNDLESGLGHFSLRVH [A3K]	3.23
AKHADSPTRNDLESGLGHFSLRVH [A3H]	3

Variant	protein stability index
AKGADSPTRNDLESGLGHFSLRVH [A3G]	3.42
AKNADSPTRNDLESGLGHFSLRVH [A3N]	2.97
AKLADSPTRNDLESGLGHFSLRVH [A3L]	2.6
AKFADSPTRNDLESGLGHFSLRVH [A3F]	2.77
AKDADSPTRNDLESGLGHFSLRVH [A3D]	3.44
AKAADSPTRNDLEKGLGHFSLRVH [S14K]	3.36
AKAADSPTRNDLEHGLGHFSLRVH [S14H]	3.21
AKAADSPTRNDLELGLGHFSLRVH [S14L]	2.57
AKAADSPTRNDLEIGLGHFSLRVH [S14I]	2.38
AKAADSPTRNDLEPGLGHFSLRVH [S14P]	2.85
AKAADSPTRNDLEEGLGHFSLRVH [S14E]	3.81
AKAADSPTRNDLEQGLGHFSLRVH [S14Q]	2.94
AKAADSPTRNDLEFGLGHFSLRVH [S14F]	2.25
AKAADSPTRNDLESGLSHFSLRVH [G17S]	2.84
AKAADSPTRNDLESGLRHFSLRVH [G17R]	2.89
AKAADSPTRNDLESGLAHFSLRVH [G17A]	2.84
AKAADSPTRNDLESGLCHFSLRVH [G17C]	2.85
AKAADSPTRNDLESGLWHFSLRVH [G17W]	2.96
AKAADSPTRNDLESGLTHFSLRVH [G17T]	2.56
AKAADSPTRNDLESGLIHFSLRVH [G17I]	2.28
AKAADSPTRNDLESGLYHFSLRVH [G17Y]	2.37
AQAADSPTRNDLESGLGHFSLRVH [K2Q]	2.69
AYAADSPTRNDLESGLGHFSLRVH [K2Y]	2.49
ANAADSPTRNDLESGLGHFSLRVH [K2N]	2.88

Variant	protein stability index
AEAADSPTRNDLESGLGHFSLRVH [K2E]	3.98
AVAADSPTRNDLESGLGHFSLRVH [K2V]	3.18
AFAADSPTRNDLESGLGHFSLRVH [K2F]	2.42
ADAADSPTRNDLESGLGHFSLRVH [K2D]	3.55
AWAADSPTRNDLESGLGHFSLRVH [K2W]	1.66
AGAADSPTRNDLESGLGHFSLRVH [K2G]	2.71
AKAADSPTENDLESGLGHFSLRVH [R9E]	3.95
AKAADSPTYNDLESGLGHFSLRVH [R9Y]	2.7
AKAADSPTANDLESGLGHFSLRVH [R9A]	3.47
AKAADSPTQNDLESGLGHFSLRVH [R9Q]	3.22
AKAADSPTNNDLESGLGHFSLRVH [R9N]	3.51
AKAADSPTPNDLESGLGHFSLRVH [R9P]	3.07
AKAADSPTSNDLESGLGHFSLRVH [R9S]	3.25
AKAADSPTRNDLWSGLGHFSLRVH [E13W]	1.85
AKAADSPTRNDLQSGLGHFSLRVH [E13Q]	2.3
AKAADSPTRNDLCSGLGHFSLRVH [E13C]	2.31
AKAADSPTRNDLNSGLGHFSLRVH [E13N]	2.63
AKAADSPTRNDLYSGLGHFSLRVH [E13Y]	1.38
AKAADSPTRNDLRSGLGHFSLRVH [E13R]	2.38
AKAADSPTRNDLASGLGHFSLRVH [E13A]	2.26
AKAADSPTRNDLTSGLGHFSLRVH [E13T]	2.59
AKAADSPTRNDLFSGLGHFSLRVH [E13F]	2.19
